Here are results for seven molecules from patent US20240092888A1 (AULOS BIOSCIENCE, published 2024).

In assay [1] the target is T1, human IL-2 (human, UniProt P60568 21-153).
T1 construct: SPR used Reprokine human IL-2; the result sentences say only hIL-2 or labeled human IL-2, so the same molecule is used here; also called hIL-2; recombinant human IL-2
The assay can be described thus: yeast surface display flow cytometry, 0.1 nM hIL-2, MFI normalized to expression. (In general: A flow cytometer gives signals particle by particle.)

Assay [2] deals with T1, human IL-2. Nature of the assay: yeast surface display, selection against human IL-2.
Assay [3] addresses T2, BDG17.067 complexed with hIL-2 (human, UniProt P60568 21-153).
T2 construct: Humanized IgG1 LALA captured on the SPR chip and saturated with 50 nM hIL-2; also called BDG17.0067 complexed with hIL-2
The assay can be described thus: SPR, captured BDG17.067 loaded with hIL-2, CD25 injected before CD122 and again after CD122. The source says: (§1) FIGS. 17A-17B. Present receptor discrimination of indicated antibody/IL-2 complex by tracing of SPR response. Antibody was immobilized to the CM5 chip, and hIL-2, CD122, and CD25 were streamed as indicated with an arrow. FIG. 17A presents a schematic order of injection of compounds to SPR chip, that represents sequential anti-IL-2 antibodies complexed with human IL-2 (hIL2), binding to CD122 but not to CD25.
(§2) To test specific binding of the humanized antibodies IL-2 complex to CD122 and CD25, antibodies BDG17.038, BDG17.043, BDG17.053, BDG17.054, BDG17.067, BDG17.069 (See, Tables 6 and 7 of Example 2 for sequence information for these clones) were immobilized to an a capture antibody attached to CM5 chip channel to a target RU of approximately 300 RU as described above. Subsequently, 50 nM IL-2 was injected till the respective antibody was saturated with hIL-2. Then the Ab-IL-2 complex was washed with PBS-T buffer for 60 sec and 1000 nM of CD25 was injected and monitored for response. Subsequently, running buffer was injected for 60 seconds to reach a steady baseline, and then 1000 nM of CD122 was injected for 30 seconds in a flow rate of 30 ul/min. To test CD122 binding, the same experiment was repeated in reverse order, with CD122 injected first flowed by injection of CD25.
A general note: Surface plasmon resonance follows binding to a sensor surface in real time, without labels.

In assay [4] the target is T3, BDG17.038 complexed with hIL-2 (human, UniProt P60568 21-153).
T3 construct: Humanized IgG1 captured on the SPR chip and saturated with 50 nM hIL-2; also called BDG17.038/hIL-2
Nature of the assay: SPR, captured BDG17.038 loaded with 50 nM hIL-2, CD25 injected before CD122.
Excerpt: as §1

Assay [5] deals with T4, BDG17.053 complexed with hIL-2 (human, UniProt P60568 21-153).
T4 construct: Humanized IgG1 captured on the SPR chip and saturated with 50 nM hIL-2
The assay can be described thus: SPR, captured antibody saturated with 50 nM hIL-2, then CD25 and CD122 injected in both orders. On the procedure:
as §2

Assay [6] has as its target T5, BDG17.023-hIL-2 complex (human, UniProt P60568 21-153).
T5 construct: BDG17.023 (human IgG1 chimera) on the SPR chip saturated with 50 nM hIL-2; also called BDG17.023-IL-2 complex; Ab-IL-2 complex
Nature of the assay: SPR, BDG17.023 on the CM5 chip loaded with 50 nM hIL-2, CD122 then CD25 1000 nM. On the procedure: To test specific binding to CD25, BDG17.023 was immobilized to the CM5 chip to a target RU of approximately 300 RU as described above. Subsequently, 50 nM IL-2 was injected till the BDG17.023 or control antibody were saturated. Then the Ab-IL-2 complex was washed with PBS-T buffer for 10 sec and 1000 nM of CD25 was injected and monitored for response.
To test specific binding to CD122, BDG17.023 was immobilized to the CM5 chip to a target RU of approximately 300 RU-500 RU as described above. Subsequently, 50 nM hIL-2 was injected till the BDG17.023 antibody was saturated with hIL-2. Next the Ab-IL-2 complex was washed with PBS-T buffer for 10 sec and 1000 nM of CD122 was injected and response was monitored.

In assay [7] the target is T6, BDG17.054 complexed with hIL-2 (human, UniProt P60568 21-153).
T6 construct: Humanized IgG1 captured on the SPR chip and saturated with 50 nM hIL-2; also called BDG17.054/hIL-2
The assay can be described thus: SPR, captured BDG17.054 loaded with 50 nM hIL-2, CD25 injected before CD122 and again after CD122.
Excerpt: as §1, §2

For assay [8], the target named is T7, BDG17.069 complexed with hIL-2 (human, UniProt P60568 21-153).
T7 construct: Humanized IgG1 LALA captured on the SPR chip and saturated with 50 nM hIL-2
The assay can be described thus: SPR, captured BDG17.069 loaded with hIL-2, CD25 injected before CD122 and again after CD122.
Excerpt: as §1

Assay [9] concerns the target T8, BDG17.043 complexed with hIL-2 (human, UniProt P60568 21-153).
T8 construct: Humanized IgG1 captured on the SPR chip and saturated with 50 nM hIL-2; also called BDG17.043/hIL-2
The assay can be described thus: SPR, captured BDG17.043 loaded with 50 nM hIL-2, CD25 injected before CD122.
Excerpt: as §1

Assay [10] deals with T9, BDG17.066 complexed with hIL-2 (human, UniProt P60568 21-153).
T9 construct: Humanized IgG1 LALA on the SPR chip saturated with hIL-2
The assay can be described thus: SPR, captured BDG17.066 loaded with hIL-2, CD25 injected before CD122 and again after CD122.
Excerpt: as §1

Residue numbers refer to the chain shown, from its start.

T1 sequence (P60568 21-153 limits assumed): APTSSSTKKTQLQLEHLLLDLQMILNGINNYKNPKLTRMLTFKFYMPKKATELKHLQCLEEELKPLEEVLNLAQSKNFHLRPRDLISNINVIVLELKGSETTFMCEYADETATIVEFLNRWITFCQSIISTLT
T4 sequence (VH, as listed by the source limits assumed, chain 1 of 3): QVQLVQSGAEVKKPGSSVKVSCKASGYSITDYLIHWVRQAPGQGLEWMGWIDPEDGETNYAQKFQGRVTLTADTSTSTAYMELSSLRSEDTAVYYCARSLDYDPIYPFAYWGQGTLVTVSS
T4 sequence (VL, as listed by the source limits assumed, chain 2 of 3): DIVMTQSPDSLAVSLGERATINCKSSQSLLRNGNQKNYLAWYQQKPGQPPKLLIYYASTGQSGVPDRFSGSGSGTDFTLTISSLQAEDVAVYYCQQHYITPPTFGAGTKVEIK
T4 sequence (P60568 21-153 limits assumed, chain 3 of 3): as the sequence (P60568 21-153 limits assumed) above
T7 sequence (heavy, as listed by the source limits assumed, chain 1 of 3): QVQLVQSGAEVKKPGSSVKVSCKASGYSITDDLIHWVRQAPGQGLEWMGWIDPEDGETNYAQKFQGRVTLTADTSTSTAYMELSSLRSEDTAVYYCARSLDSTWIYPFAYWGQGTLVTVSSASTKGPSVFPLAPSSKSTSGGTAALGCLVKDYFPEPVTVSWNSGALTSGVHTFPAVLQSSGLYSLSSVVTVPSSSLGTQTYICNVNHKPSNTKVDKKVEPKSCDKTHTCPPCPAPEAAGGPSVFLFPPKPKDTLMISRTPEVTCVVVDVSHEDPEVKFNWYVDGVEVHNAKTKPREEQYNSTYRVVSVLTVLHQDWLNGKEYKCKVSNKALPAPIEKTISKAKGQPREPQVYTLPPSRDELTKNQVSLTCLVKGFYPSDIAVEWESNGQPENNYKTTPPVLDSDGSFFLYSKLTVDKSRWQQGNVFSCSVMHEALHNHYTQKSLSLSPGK
T7 sequence (light, as listed by the source limits assumed, chain 2 of 3): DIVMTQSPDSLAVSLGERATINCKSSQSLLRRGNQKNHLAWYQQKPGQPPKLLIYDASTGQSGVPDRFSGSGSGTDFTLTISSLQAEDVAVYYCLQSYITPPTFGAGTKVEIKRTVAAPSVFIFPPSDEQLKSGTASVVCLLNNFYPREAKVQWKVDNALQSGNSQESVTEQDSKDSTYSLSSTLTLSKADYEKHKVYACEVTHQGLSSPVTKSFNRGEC
T7 sequence (P60568 21-153 limits assumed, chain 3 of 3): as the sequence (P60568 21-153 limits assumed) above
T9 sequence (heavy, as listed by the source limits assumed, chain 1 of 3): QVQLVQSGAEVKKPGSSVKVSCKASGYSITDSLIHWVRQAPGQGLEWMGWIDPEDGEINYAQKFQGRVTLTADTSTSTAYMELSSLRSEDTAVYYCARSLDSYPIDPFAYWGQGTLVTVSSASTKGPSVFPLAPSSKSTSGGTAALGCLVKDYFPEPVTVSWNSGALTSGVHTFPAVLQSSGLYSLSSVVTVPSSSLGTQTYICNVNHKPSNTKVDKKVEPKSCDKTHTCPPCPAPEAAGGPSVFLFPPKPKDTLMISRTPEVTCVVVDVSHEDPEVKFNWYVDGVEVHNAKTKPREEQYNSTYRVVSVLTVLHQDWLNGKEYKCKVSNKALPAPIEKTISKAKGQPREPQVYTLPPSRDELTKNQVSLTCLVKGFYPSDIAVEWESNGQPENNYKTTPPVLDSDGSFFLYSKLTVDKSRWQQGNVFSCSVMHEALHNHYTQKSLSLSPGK
T9 sequence (light, as listed by the source limits assumed, chain 2 of 3): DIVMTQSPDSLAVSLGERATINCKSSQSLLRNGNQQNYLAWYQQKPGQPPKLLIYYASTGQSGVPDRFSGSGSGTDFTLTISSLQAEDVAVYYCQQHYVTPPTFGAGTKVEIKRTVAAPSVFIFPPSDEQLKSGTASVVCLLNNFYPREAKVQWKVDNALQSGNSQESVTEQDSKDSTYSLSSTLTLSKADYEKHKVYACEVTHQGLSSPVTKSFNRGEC
T9 sequence (P60568 21-153 limits assumed, chain 3 of 3): as the sequence (P60568 21-153 limits assumed) above
T6 sequence (VH, as listed by the source limits assumed, chain 1 of 3): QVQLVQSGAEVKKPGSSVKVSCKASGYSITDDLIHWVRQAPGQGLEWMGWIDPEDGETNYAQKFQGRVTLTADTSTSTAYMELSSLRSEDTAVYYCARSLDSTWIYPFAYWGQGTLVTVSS
T6 sequence (VL, as listed by the source limits assumed, chain 2 of 3): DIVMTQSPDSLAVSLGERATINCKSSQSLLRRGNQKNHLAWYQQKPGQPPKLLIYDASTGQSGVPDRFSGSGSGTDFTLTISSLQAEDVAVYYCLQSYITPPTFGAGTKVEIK
T6 sequence (P60568 21-153 limits assumed, chain 3 of 3): as the sequence (P60568 21-153 limits assumed) above
T8 sequence (VH, as listed by the source limits assumed, chain 1 of 3): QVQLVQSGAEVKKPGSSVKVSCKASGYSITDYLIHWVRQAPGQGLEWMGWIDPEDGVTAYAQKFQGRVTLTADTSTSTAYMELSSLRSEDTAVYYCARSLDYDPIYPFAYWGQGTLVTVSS
T8 sequence (VL, as listed by the source limits assumed, chain 2 of 3): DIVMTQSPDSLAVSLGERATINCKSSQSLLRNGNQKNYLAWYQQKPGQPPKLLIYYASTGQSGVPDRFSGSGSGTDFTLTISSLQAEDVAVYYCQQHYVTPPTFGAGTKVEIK
T8 sequence (P60568 21-153 limits assumed, chain 3 of 3): as the sequence (P60568 21-153 limits assumed) above
T3 sequence (VH, as listed by the source limits assumed, chain 1 of 3): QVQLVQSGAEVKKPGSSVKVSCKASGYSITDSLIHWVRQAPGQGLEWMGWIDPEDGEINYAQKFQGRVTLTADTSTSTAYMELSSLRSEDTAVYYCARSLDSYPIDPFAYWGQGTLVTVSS
T3 sequence (VL, as listed by the source limits assumed, chain 2 of 3): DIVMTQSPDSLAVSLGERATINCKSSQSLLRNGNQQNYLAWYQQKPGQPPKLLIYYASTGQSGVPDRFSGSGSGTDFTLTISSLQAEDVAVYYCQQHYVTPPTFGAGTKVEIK
T3 sequence (P60568 21-153 limits assumed, chain 3 of 3): as the sequence (P60568 21-153 limits assumed) above
T5 sequence (P60568 21-153 limits assumed, one chain of several): as the sequence (P60568 21-153 limits assumed) above
T2 sequence (heavy, as listed by the source limits assumed, chain 1 of 3): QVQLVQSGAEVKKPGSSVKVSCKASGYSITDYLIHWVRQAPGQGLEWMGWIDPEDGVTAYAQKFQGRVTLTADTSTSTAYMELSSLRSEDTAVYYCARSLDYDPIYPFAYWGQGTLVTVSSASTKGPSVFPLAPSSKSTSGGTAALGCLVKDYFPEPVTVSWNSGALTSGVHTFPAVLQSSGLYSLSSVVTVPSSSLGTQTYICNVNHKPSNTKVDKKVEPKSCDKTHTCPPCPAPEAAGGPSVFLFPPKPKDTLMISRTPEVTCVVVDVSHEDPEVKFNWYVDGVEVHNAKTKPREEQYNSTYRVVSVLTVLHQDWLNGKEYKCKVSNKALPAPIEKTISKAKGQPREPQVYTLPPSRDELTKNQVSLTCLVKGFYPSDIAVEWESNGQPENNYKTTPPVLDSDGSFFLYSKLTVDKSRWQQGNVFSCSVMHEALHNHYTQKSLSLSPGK
T2 sequence (light, as listed by the source limits assumed, chain 2 of 3): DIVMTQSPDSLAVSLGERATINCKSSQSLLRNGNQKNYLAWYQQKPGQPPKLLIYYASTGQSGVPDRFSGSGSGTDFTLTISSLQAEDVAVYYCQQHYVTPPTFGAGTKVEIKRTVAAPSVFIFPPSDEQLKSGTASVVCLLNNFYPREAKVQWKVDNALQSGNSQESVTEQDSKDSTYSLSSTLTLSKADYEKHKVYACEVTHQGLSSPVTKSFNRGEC
T2 sequence (P60568 21-153 limits assumed, chain 3 of 3): as the sequence (P60568 21-153 limits assumed) above

B1: clone 2 (17.022) scFv, yeast surface display clone (scFv)
scFv: EIQLQQSGPELRRPGSSVKLSCKASGYNITDYLIHWVRHRPEHGLEWIGWIDPEDGETRYAQKFQSKATLTADTSSNAAYMQLSSLTPEDTATYFCARSLDSTWIYPFAYWGQGTLVTVSSGGGGSGGGGSGGGGSDIVMTQSPFSLAVSEGEMVTINCKSSQSLLRSGNQKNYLAWYQQKPGQSPKLLIYYASTGQSGVPDRFIGSGSGTDFTLTISDVQAEDLADYYCLQHYITPPTFGAGTKLELK
For B1, the binding result in assay [1] is on record as “binds”.

B2: clone 4 (17.023) scFv, yeast surface display clone (scFv)
scFv: B1 scFv with S99Q, W104Y
For B2, the binding result in assay [1] is “binds”.

B3: clone 1 (17.021) scFv, yeast surface display clone (scFv)
scFv: B1 scFv with Y32N, W104Y, I235Q, T236S
As to B3, the binding result in [1] is “binds”.

B4: clone 5 (17.030) scFv, yeast surface display clone (scFv)
scFv: B1 scFv with W104Y, I105D, T236S
As for B4, in assay [1], the binding result was “binds”.

B5: clone C #7 (173R5C1-17.002) (scFv)
scFv: B1 scFv with W104P
notes: Yeast surface display clone from the JES6.1 scFv library
With B5, in assay [2], the binding result was “binds”.

B6: clone 6 (17.035) scFv, yeast surface display clone (scFv)
scFv: B1 scFv with W104Y, I105N, Y234W, T236S
B6: the binding result in assay [1] was “binds”.

B7: human CD25 (receptor, UniProt P01589 22-240, looked up)
chain: ELCDDDPPEIPHATFKAMAYKEGTMLNCECKRGFRRIKSGSLYMLCTGNSSHSSWDNQCQCTSSATRNTTKQVTPQPEEQKERKTTEMQSPMQPVDQASLPGHCREPPPWENEATERIYHFVVGQMVYYQCVQGYRALHRGPAESVCKMTHGKTRWTQPQLICTGEMETSQFPGEEKPQASPEGRPESETSCLVTTTDFQIQTEMAATMETSIFTTEYQ
notes: also called IL-2R alpha
As for B7, the binding result in assay [3] is reported as “no binding”; in assay [4], “no binding (tested: 1000 nM)”; in assay [5] it was “no binding (tested: 1000 nM CD25)”; in assay [6] it was “no binding (tested: 1000 nM)”; in assay [7] it was “no binding (tested: 1000 nM)”; in assay [8], “no binding”. The binding result in assay [9] and in assay [10] was “no binding” in each case.
